Type in all cases: cell-based
The target in test [1] is T1, human chemokine receptor CCR1 (Homo sapiens, UniProt P32246).
T1 construct: expressed in transfected cells; host or cells: HEK293T, transient
T1 sequence (P32246 1-355): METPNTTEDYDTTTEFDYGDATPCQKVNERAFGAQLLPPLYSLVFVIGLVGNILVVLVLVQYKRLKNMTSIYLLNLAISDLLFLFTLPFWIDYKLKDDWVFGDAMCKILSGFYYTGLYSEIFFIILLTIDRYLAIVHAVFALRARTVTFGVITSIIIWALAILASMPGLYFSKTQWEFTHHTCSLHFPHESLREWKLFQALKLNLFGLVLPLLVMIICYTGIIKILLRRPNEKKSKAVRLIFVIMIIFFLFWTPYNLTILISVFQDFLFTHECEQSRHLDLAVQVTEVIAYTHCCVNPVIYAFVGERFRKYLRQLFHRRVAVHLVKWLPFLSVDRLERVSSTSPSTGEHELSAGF
Put plainly: Cellular NanoBiT β-arrestin recruitment assay. The note with it: n = 3; read-out: EC50, β-arrestin-2 recruitment, CCR1 activation. The procedure:
(§1) CCR1 and CCR2 was monitored using a nanoluciferase complementation -based assay (NanoBiT, Promega). 17-19 5 x 10^6 HEK293T cells were plated in 10 cm dishes and cultured for 24 h before transfection with vectors encoding for the human chemokine receptor CCR1 or CCR2 C-terminally fused with SmBiT and β-arrestin 2 N-terminally fused with LgBiT. 24 h after transfection cells were harvested, distributed into white 96-well plates (5 × 10^4 cells per well) and incubated for 1 h at 37 °C with compound 23 at concentrations ranging from 10 nM to 10 µM. The endogenous chemokine ligand CCL5 (3 nM, for CCR1) or CCL2 (10 nM, for CCR2) was then added, and luminescence generated upon nanoluciferase complementation in the presence of coelenterazine H was measured with a Mithras LB940 luminometer (Berthold Technologies) for 20 min. […]
(§2) Finally, the top 5% of the identified hits were subsequently docked to a homology model of CCR1 (vide infra). After visual examination of the obtained binding modes 24 hit compounds were identified for further investigation .
(§3) Molecular docking: For the docking studies in the course of our virtual screening campaign, the CCR1 protein was […]
27, 28 CCR1 structure was optimized using the Quickprep and structure preparation wizard in MOE 24 using CHARMM27 forcefield. The protein was saved in mol2 format and loaded in GOLD.25, 26 The amino acids defining the IABS were listed in a text file to define the docking cavity. 50 GA runs were performed for docking CCR2-RA-[R] (4-[R]) and SN_12 (43), with the generated solutions clustered based on their RMSD with the threshold set to 0.75 Å using the complete linkage method. Docking runs were performed using ChemScore. Flexibility of amino acids Lys63ICL1, Arg1313.50, Leu2406.36 and Arg3078.49 was taken in consideration in the docking runs, with conformational sampling of their side chains being done by the rotamer libraries implemented in GOLD.25, 26 For the docking studies with our ligand-linker conjugates (Figure S1), molecular ligand structures were geometry optimized as neutral molecules by means of Avogadro (Version 1.2.0)29 using the Universal Force Field (UFF) and the Steepest Decent Algorithm until convergence (ΔE = 0).
CCR113 was used for docking. The compounds were docked by means of AutoDock Vina 1.1.2.30, 31 An exhaustiveness value of 8 and a search space of 22 x 22 x 22 Å³ was applied around the unliganded intracellular allosteric binding site of CCR1. Twenty docking poses were generated for each ligand and inspected manually and according to the docking score.
In general terms: Recruitment of arrestin is a read-out of receptor activation apart from second messengers.

For test [2], the target named is T1, human chemokine receptor CCR1. Put plainly: Cellular NanoBiT miniGi recruitment assay. The note with it: n = 3; read-out: EC50, miniGi recruitment, CCR1 activation. Here is the method:
Technologies) for 20 min.
Cellular NanoBiT miniGi recruitment assay s: Chemokine-induced Gi recruitment to the chemokine receptor CCR1 was monitored using a nanoluciferase complementation -based assay (NanoBiT, Promega). 20 5 x 10^6 HEK293T cells were plated in 10 cm dishes and cultured for 24 h before transfection with vectors encoding for the human chemokine receptor CCR1 C-terminally fused with SmBiT and miniGi (mG, engineered GTPase domain of Gα subunit) N-terminally fused with LgBiT. 24 h after transfection cells were harvested, distributed into white 96 -well plates (5 × 10^4 cells per well) and incubated for 1 h at 37 °C with compound 23 at concentrations ranging from 10 nM to 100 µM. The endogenous chemokine ligand CCL5 (3 nM, for CCR1) was then added, and luminescence generated upon nanoluciferase complementation in the presence of coelenterazine H was measured with a Mithras LB940 luminometer (Berthold Technologies) for 20 min. […]
as §2, §3
(§4) 27, 28 CCR1 structure was optimized using the Quickprep and structure preparation wizard in MOE 24 using CHARMM27 forcefield. The protein was saved in mol2 format and loaded in GOLD.25, 26 The amino acids defining the IABS were listed in a text file to define the docking cavity. 50 GA runs were performed for docking CCR2-RA-[R] (4-[R]) and SN_12 (43), with the generated solutions clustered based on their RMSD with the threshold set to 0.75 Å using the complete linkage method. Docking runs were performed using ChemScore. […]

For test [3], the target named is T2, human chemokine receptor CCR2 (Homo sapiens, UniProt P41597).
T2 construct: expressed in transfected cells; host or cells: HEK293T, transient
T2 sequence (P41597 whole entry): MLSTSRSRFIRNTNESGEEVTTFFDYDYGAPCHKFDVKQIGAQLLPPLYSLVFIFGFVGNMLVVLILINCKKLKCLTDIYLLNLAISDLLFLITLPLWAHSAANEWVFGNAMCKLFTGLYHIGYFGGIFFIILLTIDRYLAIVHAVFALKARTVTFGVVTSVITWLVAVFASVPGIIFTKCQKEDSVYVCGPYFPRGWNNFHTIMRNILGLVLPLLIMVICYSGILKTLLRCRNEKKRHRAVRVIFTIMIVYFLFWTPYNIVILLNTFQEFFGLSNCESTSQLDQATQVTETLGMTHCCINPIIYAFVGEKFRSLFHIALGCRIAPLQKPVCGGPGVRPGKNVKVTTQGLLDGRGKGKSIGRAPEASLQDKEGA
Put plainly: Cellular NanoBiT β-arrestin recruitment assay. Conditions: n = 1; read-out: EC50, β-arrestin-2 recruitment, CCR2 activation. Here is the method:
(PerkinElmer, Groningen, NL).
as §1, with “Cellular NanoBiT β-arrestin recruitment assays: Chemokine-induced β-arrestin-2 recruitment to chemokine receptors CCR1 and” for “CCR1 and”
as §2, §3, §4

Regarding “CCL5: endogenous chemokine ligand, CCR1 agonist”, the concentration for a half-maximal effect (EC50) (as a rule, the midpoint of the concentration-response curve) in test [1] is 1.01 nM; in test [2], 2.93 nM. “CCL2: endogenous chemokine ligand, CCR2 agonist”: the concentration for a half-maximal effect (EC50) in test [3] is 7.43 nM.

Source of the values: paper PMC11249626, “Fluorophore-Labeled Pyrrolones Targeting the Intracellular Allosteric Binding Site of the Chemokine Receptor CCR1” (ACS Pharmacology & Translational Science, 2024).
